Assay results: PMC3287200 (Nucleic Acids Research, 2011)
Substitutions are numbered along the chain they refer to. Names may count otherwise.

Columns and labels:
BsHfq-His [1] = target: T1, BsHfq-His (Bacillus subtilis, UniProt O31796 1-73); test: EMSA
T1 sequence: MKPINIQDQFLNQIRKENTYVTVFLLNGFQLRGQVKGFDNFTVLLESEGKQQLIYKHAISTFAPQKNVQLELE

BsHfq-His [2] = target: T1, BsHfq-His; test: UV cross-linking
BsHfq-His F41A = target: T2, BsHfq-His F41A (Bacillus subtilis, UniProt O31796 1-73, F41A); test: EMSA
T2 sequence: T1 sequence with F41A

BsHfq-His N40A = target: T3, BsHfq-His N40A (Bacillus subtilis, UniProt O31796 1-73, N40A); test: EMSA
T3 sequence: T1 sequence with N40A

BsHfq-His R32A = target: T4, BsHfq-His R32A (Bacillus subtilis, UniProt O31796 1-73, R32A); test: EMSA
T4 sequence: T1 sequence with R32A

BsHfq-His F29A = target: T5, BsHfq-His F29A (Bacillus subtilis, UniProt O31796 1-73, F29A); test: EMSA
T5 sequence: T1 sequence with F29A

BsHfq-His F24A = target: T6, BsHfq-His F24A (Bacillus subtilis, UniProt O31796 1-73, F24A); test: EMSA
T6 sequence: T1 sequence with F24A

BsHfq-His Q30A = target: T7, BsHfq-His Q30A (Bacillus subtilis, UniProt O31796 1-73, Q30A); test: EMSA
T7 sequence: T1 sequence with Q30A

BsHfq-His [3] = target: T1, BsHfq-His; test: UV cross-linking; remark: listed apart in the source
SEC + other: SDS-PAGE = target: the molecule itself; test: SEC + other: SDS-PAGE
BsHfq (GST removed) = target: T8, BsHfq (GST removed) (Bacillus subtilis, UniProt O31796 1-73); test: EMSA
T8 sequence: T1 sequence

B1: 28f (ssRNA)
RNA: GGGACACAAUGGACGAGGGAUUUGGGUGAUAUUUUUAGUCGGUCAUAACGGCCGACAUGAGAG
BsHfq-His [1]
  binding result: no binding

## GGGCGAAUUCUAGAGAGAGAUUAGAUCCUGUCCGCGGCUAAAGCU (structured_RNA) [49R]
BsHfq-His [2]
  binding result: binds
BsHfq-His F41A
  binding result: binds
BsHfq-His N40A
  binding result: binds
BsHfq-His R32A
  binding result: no binding
BsHfq-His F29A
  binding result: no binding
BsHfq-His F24A
  binding result: no binding
BsHfq-His Q30A
  binding result: no binding

## GGGCGAAUUCUAGAGAAAGAUUAGAUCCUGUCCGCGGCUAAAGCU (ssRNA) [49R-A]
BsHfq-His [3]
  binding result: binds

B2: BsHfq-His H57A (natural protein, Bacillus subtilis)
chain: T1 sequence with H57A
SEC + other: SDS-PAGE
  ability to form hexameric structure, percent of wild-type: ~30 % of wild-type

B3: BsHfq-His F24A (natural protein, Bacillus subtilis)
chain: T1 sequence with F24A
SEC + other: SDS-PAGE
  stoichiometry N: 6

B4: BsHfq-His N40A (natural protein, Bacillus subtilis)
chain: T1 sequence with N40A
SEC + other: SDS-PAGE
  stoichiometry N: 6

B5: BsHfq-His F29A (natural protein, Bacillus subtilis)
chain: T1 sequence with F29A
SEC + other: SDS-PAGE
  stoichiometry N: 6

B6: BsHfq-His R32A (natural protein, Bacillus subtilis)
chain: T1 sequence with R32A
SEC + other: SDS-PAGE
  stoichiometry N: 6

B7: C-terminal 6x His fusion BsHfq, wild type (natural protein, Bacillus subtilis)
chain: T1 sequence
SEC + other: SDS-PAGE
  stoichiometry N: 6

B8: BsHfq-His K56A (natural protein, Bacillus subtilis)
chain: T1 sequence with K56A
SEC + other: SDS-PAGE
  ability to form hexameric structure, percent of wild-type: ~60 % of wild-type

B9: BsHfq-His Q30A (natural protein, Bacillus subtilis)
chain: T1 sequence with Q30A
SEC + other: SDS-PAGE
  stoichiometry N: 6

B10: BsHfq-His F41A (natural protein, Bacillus subtilis)
chain: T1 sequence with F41A
SEC + other: SDS-PAGE
  stoichiometry N: 6

## AUUUUUG (ssRNA) [AU5G]
BsHfq (GST removed)
  binding result: no binding
